# Experimental data: patent US20160272693A1 (ZEALAND PHARMA A S, published 2016)
# *1 amine or outer side, *2 acyl side, *3 side chain or, on linkers, in order; H or OH if unused. Bridges are numbered along the chain shown (N, C = ends). [ ]: non-standard residue; d: D form. The star is where a group is joined. C20 diacid = O=C(O)CCCCCCCCCCCCCCCCCCC(=O)*; γGlu = O=C(O)[C@H](CCC(=O)[*:2])N[*:1]; Hyp = O=C(O)[C@@H]1C[C@@H](O)CN1; NMeI = CC[C@H](C)[C@H](NC)C(=O)O; Sar = CNCC(=O)O
# T1: human amylin receptor 3 (hAMYR3), hCTR2 co-expressed with human receptor activity modifying protein 3 (hRAMP3) (human, UniProt P30988 25-474; O60896 24-148)
# T1 sequence (looked up) 1: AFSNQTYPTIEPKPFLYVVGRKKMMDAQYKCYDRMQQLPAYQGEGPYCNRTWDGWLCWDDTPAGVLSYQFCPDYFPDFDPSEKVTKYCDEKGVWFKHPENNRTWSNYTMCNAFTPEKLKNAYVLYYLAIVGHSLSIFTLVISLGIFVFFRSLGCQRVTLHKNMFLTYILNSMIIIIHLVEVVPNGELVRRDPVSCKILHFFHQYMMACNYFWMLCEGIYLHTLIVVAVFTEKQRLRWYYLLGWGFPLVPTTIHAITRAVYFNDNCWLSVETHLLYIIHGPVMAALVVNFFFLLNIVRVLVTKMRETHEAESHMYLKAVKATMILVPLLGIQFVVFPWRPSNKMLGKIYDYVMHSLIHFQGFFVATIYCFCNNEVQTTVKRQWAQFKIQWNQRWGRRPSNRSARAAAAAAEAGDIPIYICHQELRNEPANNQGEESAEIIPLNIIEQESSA
# T1 sequence (looked up) 2: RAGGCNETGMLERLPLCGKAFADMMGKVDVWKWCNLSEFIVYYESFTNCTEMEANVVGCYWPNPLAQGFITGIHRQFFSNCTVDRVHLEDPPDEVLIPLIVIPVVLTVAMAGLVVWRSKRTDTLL
# Target: T1, human amylin receptor 3 (hAMYR3), hCTR2 …
# Experiment: cell-based or functional assay
row,hAMYR3 EC50 (nM); cAMP induction [nM],Binder
1,0.36,{C20 diacid}-[γGlu]RCPTATCATERLAHFLQRSSF[Sar]A[NMeI]LSSTEVGSST[Hyp]-NH2 (disulfide 3-8; SMILES CC[C@H](C)[C@@H](C(=O)N[C@@H](CC(C)C)C(=O)N[C@@H](CO)C(=O)N[C@@H](CO)C(=O)N[C@H](C(=O)N[C@@H](CCC(=O)O)C(=O)N[C@H](C(=O)NCC(=O)N[C@@H](CO)C(=O)N[C@@H](CO)C(=O)N[C@H](C(=O)N1C[C@H](O)C[C@H]1C(N)=O)[C@@H](C)O)C(C)C)[C@@H](C)O)N(C)C(=O)[C@H](C)NC(=O)CN(C)C(=O)[C@H](Cc1ccccc1)NC(=O)[C@H](CO)NC(=O)[C@H](CO)NC(=O)[C@H](CCCNC(=N)N)NC(=O)[C@H](CCC(N)=O)NC(=O)[C@H](CC(C)C)NC(=O)[C@H](Cc1ccccc1)NC(=O)[C@H](Cc1c[nH]cn1)NC(=O)[C@H](C)NC(=O)[C@H](CC(C)C)NC(=O)[C@H](CCCNC(=N)N)NC(=O)[C@H](CCC(=O)O)NC(=O)[C@@H](NC(=O)[C@H](C)NC(=O)[C@@H]1CSSC[C@H](NC(=O)[C@H](CCCNC(=N)N)NC(=O)CC[C@H](NC(=O)CCCCCCCCCCCCCCCCCCC(=O)O)C(=O)O)C(=O)N2CCC[C@H]2C(=O)N[C@@H]([C@@H](C)O)C(=O)N[C@@H](C)C(=O)N[C@@H]([C@@H](C)O)C(=O)N1)[C@@H](C)O) [[19CD]-isoGlu-R-C( )-PTAT-C( )-ATERLAHFLQRSSF-Gly(Me)-A-Ile(Me)-LSSTEVGSST-Hyp-NH2 (Compd. 70)]
2,0.18,{C20 diacid}-[γGlu]RCNTATCATQRLAHFLQRSSF[Sar]A[NMeI]LSSTEVGSGT[Hyp]-NH2 (disulfide 3-8; SMILES CC[C@H](C)[C@@H](C(=O)N[C@@H](CC(C)C)C(=O)N[C@@H](CO)C(=O)N[C@@H](CO)C(=O)N[C@H](C(=O)N[C@@H](CCC(=O)O)C(=O)N[C@H](C(=O)NCC(=O)N[C@@H](CO)C(=O)NCC(=O)N[C@H](C(=O)N1C[C@H](O)C[C@H]1C(N)=O)[C@@H](C)O)C(C)C)[C@@H](C)O)N(C)C(=O)[C@H](C)NC(=O)CN(C)C(=O)[C@H](Cc1ccccc1)NC(=O)[C@H](CO)NC(=O)[C@H](CO)NC(=O)[C@H](CCCNC(=N)N)NC(=O)[C@H](CCC(N)=O)NC(=O)[C@H](CC(C)C)NC(=O)[C@H](Cc1ccccc1)NC(=O)[C@H](Cc1c[nH]cn1)NC(=O)[C@H](C)NC(=O)[C@H](CC(C)C)NC(=O)[C@H](CCCNC(=N)N)NC(=O)[C@H](CCC(N)=O)NC(=O)[C@@H](NC(=O)[C@H](C)NC(=O)[C@@H]1CSSC[C@H](NC(=O)[C@H](CCCNC(=N)N)NC(=O)CC[C@H](NC(=O)CCCCCCCCCCCCCCCCCCC(=O)O)C(=O)O)C(=O)N[C@@H](CC(N)=O)C(=O)N[C@@H]([C@@H](C)O)C(=O)N[C@@H](C)C(=O)N[C@@H]([C@@H](C)O)C(=O)N1)[C@@H](C)O) [[19CD]-isoGlu-R-C( )-NTAT-C( )-ATQRLAHFLQRSSF-Gly(Me)-A-Ile(Me)-LSSTEVGSGT-Hyp-NH2 (Compd. 71)]
3,0.34,{C20 diacid}-[γGlu]RCGTATCATERLAHFLQRSSF[Sar]A[NMeI]LSSTEVGSNT[Hyp]-NH2 (disulfide 3-8; SMILES CC[C@H](C)[C@@H](C(=O)N[C@@H](CC(C)C)C(=O)N[C@@H](CO)C(=O)N[C@@H](CO)C(=O)N[C@H](C(=O)N[C@@H](CCC(=O)O)C(=O)N[C@H](C(=O)NCC(=O)N[C@@H](CO)C(=O)N[C@@H](CC(N)=O)C(=O)N[C@H](C(=O)N1C[C@H](O)C[C@H]1C(N)=O)[C@@H](C)O)C(C)C)[C@@H](C)O)N(C)C(=O)[C@H](C)NC(=O)CN(C)C(=O)[C@H](Cc1ccccc1)NC(=O)[C@H](CO)NC(=O)[C@H](CO)NC(=O)[C@H](CCCNC(=N)N)NC(=O)[C@H](CCC(N)=O)NC(=O)[C@H](CC(C)C)NC(=O)[C@H](Cc1ccccc1)NC(=O)[C@H](Cc1c[nH]cn1)NC(=O)[C@H](C)NC(=O)[C@H](CC(C)C)NC(=O)[C@H](CCCNC(=N)N)NC(=O)[C@H](CCC(=O)O)NC(=O)[C@@H](NC(=O)[C@H](C)NC(=O)[C@@H]1CSSC[C@H](NC(=O)[C@H](CCCNC(=N)N)NC(=O)CC[C@H](NC(=O)CCCCCCCCCCCCCCCCCCC(=O)O)C(=O)O)C(=O)NCC(=O)N[C@@H]([C@@H](C)O)C(=O)N[C@@H](C)C(=O)N[C@@H]([C@@H](C)O)C(=O)N1)[C@@H](C)O) [[19CD]-isoGlu-R-C( )-GTAT-C( )-ATERLAHFLQRSSF-Gly(Me)-A-Ile(Me)-LSSTEVGSNT-Hyp-NH2 (Compd. 7)]
4,0.29,{C20 diacid-γGlu}-RCNTATCATERLADFLQRSSF[Sar]A[NMeI]LSSTEVGSNT[Hyp]-NH2 (disulfide 2-7; SMILES CC[C@H](C)[C@@H](C(=O)N[C@@H](CC(C)C)C(=O)N[C@@H](CO)C(=O)N[C@@H](CO)C(=O)N[C@H](C(=O)N[C@@H](CCC(=O)O)C(=O)N[C@H](C(=O)NCC(=O)N[C@@H](CO)C(=O)N[C@@H](CC(N)=O)C(=O)N[C@H](C(=O)N1C[C@H](O)C[C@H]1C(N)=O)[C@@H](C)O)C(C)C)[C@@H](C)O)N(C)C(=O)[C@H](C)NC(=O)CN(C)C(=O)[C@H](Cc1ccccc1)NC(=O)[C@H](CO)NC(=O)[C@H](CO)NC(=O)[C@H](CCCNC(=N)N)NC(=O)[C@H](CCC(N)=O)NC(=O)[C@H](CC(C)C)NC(=O)[C@H](Cc1ccccc1)NC(=O)[C@H](CC(=O)O)NC(=O)[C@H](C)NC(=O)[C@H](CC(C)C)NC(=O)[C@H](CCCNC(=N)N)NC(=O)[C@H](CCC(=O)O)NC(=O)[C@@H](NC(=O)[C@H](C)NC(=O)[C@@H]1CSSC[C@H](NC(=O)[C@H](CCCNC(=N)N)NC(=O)CC[C@H](NC(=O)CCCCCCCCCCCCCCCCCCC(=O)O)C(=O)O)C(=O)N[C@@H](CC(N)=O)C(=O)N[C@@H]([C@@H](C)O)C(=O)N[C@@H](C)C(=O)N[C@@H]([C@@H](C)O)C(=O)N1)[C@@H](C)O) [[19CD]-isoGlu-R-C( )-NTAT-C( )-ATERLADFLQRSSF-Gly(Me)-A-Ile(Me)-LSSTEVGSNT-Hyp-NH2 (Compd. 68)]
5,0.24,{C20 diacid}-[γGlu]RCNTATCATQRLAHFLQRSSF[Sar]A[NMeI]LSSTEVGSTT[Hyp]-NH2 (disulfide 3-8; SMILES CC[C@H](C)[C@@H](C(=O)N[C@@H](CC(C)C)C(=O)N[C@@H](CO)C(=O)N[C@@H](CO)C(=O)N[C@H](C(=O)N[C@@H](CCC(=O)O)C(=O)N[C@H](C(=O)NCC(=O)N[C@@H](CO)C(=O)N[C@H](C(=O)N[C@H](C(=O)N1C[C@H](O)C[C@H]1C(N)=O)[C@@H](C)O)[C@@H](C)O)C(C)C)[C@@H](C)O)N(C)C(=O)[C@H](C)NC(=O)CN(C)C(=O)[C@H](Cc1ccccc1)NC(=O)[C@H](CO)NC(=O)[C@H](CO)NC(=O)[C@H](CCCNC(=N)N)NC(=O)[C@H](CCC(N)=O)NC(=O)[C@H](CC(C)C)NC(=O)[C@H](Cc1ccccc1)NC(=O)[C@H](Cc1c[nH]cn1)NC(=O)[C@H](C)NC(=O)[C@H](CC(C)C)NC(=O)[C@H](CCCNC(=N)N)NC(=O)[C@H](CCC(N)=O)NC(=O)[C@@H](NC(=O)[C@H](C)NC(=O)[C@@H]1CSSC[C@H](NC(=O)[C@H](CCCNC(=N)N)NC(=O)CC[C@H](NC(=O)CCCCCCCCCCCCCCCCCCC(=O)O)C(=O)O)C(=O)N[C@@H](CC(N)=O)C(=O)N[C@@H]([C@@H](C)O)C(=O)N[C@@H](C)C(=O)N[C@@H]([C@@H](C)O)C(=O)N1)[C@@H](C)O) [[19CD]-isoGlu-R-C( )-NTAT-C( )-ATQRLAHFLQRSSF-Gly(Me)-A-Ile(Me)-LSSTEVGSTT-Hyp-NH2 (Compd. 73)]
6,0.27,{C20 diacid}-[γGlu]RCPTATCATERLAHFLQRSSF[Sar]A[NMeI]LSSTEVGSGT[Hyp]-NH2 (disulfide 3-8; SMILES CC[C@H](C)[C@@H](C(=O)N[C@@H](CC(C)C)C(=O)N[C@@H](CO)C(=O)N[C@@H](CO)C(=O)N[C@H](C(=O)N[C@@H](CCC(=O)O)C(=O)N[C@H](C(=O)NCC(=O)N[C@@H](CO)C(=O)NCC(=O)N[C@H](C(=O)N1C[C@H](O)C[C@H]1C(N)=O)[C@@H](C)O)C(C)C)[C@@H](C)O)N(C)C(=O)[C@H](C)NC(=O)CN(C)C(=O)[C@H](Cc1ccccc1)NC(=O)[C@H](CO)NC(=O)[C@H](CO)NC(=O)[C@H](CCCNC(=N)N)NC(=O)[C@H](CCC(N)=O)NC(=O)[C@H](CC(C)C)NC(=O)[C@H](Cc1ccccc1)NC(=O)[C@H](Cc1c[nH]cn1)NC(=O)[C@H](C)NC(=O)[C@H](CC(C)C)NC(=O)[C@H](CCCNC(=N)N)NC(=O)[C@H](CCC(=O)O)NC(=O)[C@@H](NC(=O)[C@H](C)NC(=O)[C@@H]1CSSC[C@H](NC(=O)[C@H](CCCNC(=N)N)NC(=O)CC[C@H](NC(=O)CCCCCCCCCCCCCCCCCCC(=O)O)C(=O)O)C(=O)N2CCC[C@H]2C(=O)N[C@@H]([C@@H](C)O)C(=O)N[C@@H](C)C(=O)N[C@@H]([C@@H](C)O)C(=O)N1)[C@@H](C)O) [[19CD]-isoGlu-R-C( )-PTAT-C( )-ATERLAHFLQRSSF-Gly(Me)-A-Ile(Me)-LSSTEVGSGT-Hyp-NH2 (Compd. 72)]
7,0.17,{C20 diacid}-[γGlu]RCNTATCATQRLAHFLQRSSF[Sar]A[NMeI]LSSTEVGSST[Hyp]-NH2 (disulfide 3-8; SMILES CC[C@H](C)[C@@H](C(=O)N[C@@H](CC(C)C)C(=O)N[C@@H](CO)C(=O)N[C@@H](CO)C(=O)N[C@H](C(=O)N[C@@H](CCC(=O)O)C(=O)N[C@H](C(=O)NCC(=O)N[C@@H](CO)C(=O)N[C@@H](CO)C(=O)N[C@H](C(=O)N1C[C@H](O)C[C@H]1C(N)=O)[C@@H](C)O)C(C)C)[C@@H](C)O)N(C)C(=O)[C@H](C)NC(=O)CN(C)C(=O)[C@H](Cc1ccccc1)NC(=O)[C@H](CO)NC(=O)[C@H](CO)NC(=O)[C@H](CCCNC(=N)N)NC(=O)[C@H](CCC(N)=O)NC(=O)[C@H](CC(C)C)NC(=O)[C@H](Cc1ccccc1)NC(=O)[C@H](Cc1c[nH]cn1)NC(=O)[C@H](C)NC(=O)[C@H](CC(C)C)NC(=O)[C@H](CCCNC(=N)N)NC(=O)[C@H](CCC(N)=O)NC(=O)[C@@H](NC(=O)[C@H](C)NC(=O)[C@@H]1CSSC[C@H](NC(=O)[C@H](CCCNC(=N)N)NC(=O)CC[C@H](NC(=O)CCCCCCCCCCCCCCCCCCC(=O)O)C(=O)O)C(=O)N[C@@H](CC(N)=O)C(=O)N[C@@H]([C@@H](C)O)C(=O)N[C@@H](C)C(=O)N[C@@H]([C@@H](C)O)C(=O)N1)[C@@H](C)O) [[19CD]-isoGlu-R-C( )-NTAT-C( )-ATQRLAHFLQRSSF-Gly(Me)-A-Ile(Me)-LSSTEVGSST-Hyp-NH2 (Compd. 69)]
